Assay: yeast display, Sf9 membrane polyspecificity reagent, FACS + sequencing; frameworks hold sequencing errors
Outline: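 After 36–48 hours of galactose induction, yeast (Saccharomyces cerevisiae BJ5465) displaying a synthetic nanobody library were stained at 4 °C for 1 hour with 10% biotinylated, detergent-solubilized Sf9 membrane reagent. Streptavidin microbeads enriched the stained cells before FACS sorting into low and high (top ~1%) gates on anti-HA and streptavidin fluorescence. Each clone's polyreactivity label reflects its gate of origin.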

Sequence	polyreactivity (PSR sort gate)
QVQLQESGGGLVQAGGSLRLSCAASGNIFEADIMGWYHQAQGKERELVASITDGGSTNYADSVKGRFTINRDNAKNNVYLQMNSLKPADTAVYYCAAIAYPDIPTYFDYDSDYFYWGQGTQVTVSS	high polyreactivity
QVQLQESGGGLVQAGGSLRLSCAASGNIFLGDTMGWYRQAPGKEREFVAAIARGGNPYYADSVKGRFTISRNNANNTVYLQKNSLKTEDTAVHYCAVQRSHASDYNYWCQGTQVTVSS	low polyreactivity
QVQLQESGGGLVQAGGSLRLSCAASGNISPQLYMGWYRQAQGKEREFVAAIAEGSTTYYAESVKGRFTISRDDAKNTVYLQINSLKSEDTAVYYCAARYENAESFYYWGQGSQVTVSS	high polyreactivity
QVQLQESGGGLVQAGGSLRLSCAASGNISQVGVMGWYRQAPGKERELVATINFGGSSYYADSVKGRFTISRDNAKITVYLQMNSLKPEDTAVSYCNAKAYVWYLYDEFGYWGQGTQVTVSS	low polyreactivity
QVQLQESGGGLVQAGGSLRLSCAASGNISVTGFMGWYRQAPGKERELVASIGIGGTTYYADSVKGRFSISRDNAKNTVYLQMNSLKPEDTAVYYCAARYLYYAYSYWGQATQVTVSS	low polyreactivity
QVQLQESGGGLVQAGGSLRLSCAASGNIVDADIMGWYRQAPGKERELVASITDGGSTNYADSVKGRFTISRDNAKNTVYLQMNSLKPEDTAVYYCAAIAYPDIPTYFDYDSEYFYWGQGTQVTVSS	low polyreactivity
QVQLQESGGGLVQAGGSLRLSCAASGNIVVADIMGWYRQAPGKERELVASITDGGSTNYADNVKGRFTISRDNAKNTVYLQMNSLIPEDTAVYYCAANAFPDIPTYFVYDYDYFYWGQGTQVTVSG	high polyreactivity
QVQLQESGGGLVQAGGSLRLSCAASGSIARYYDMGWYLQAPGKEREFVAGISGGAISYYADSVKGRLTISRDNAKNTVYLQMNSLKPEDTAVYYCAADTCVYQYHSYWGQGTQVTVSS	low polyreactivity
QVQLQESGGGLVQAGGSLRLSCAASGSIFEELDMGWYRQAPGKEREFVAAIGTGSTTYYADSVKGRFTISRDNAKNTVYLQMNSLKPEDTAVYYCAVTYSVYLPFRYWGQGTQVTVSS	high polyreactivity
QVQLQESGGGLVQAGGSLRLSCAASGSIFHLHIMCWYRQAPGKERESVAAISNGTSTYYADSVKGRFTICRDNAKNTVYLQMNSPKPDDTAVYYCAALFLVSKHHHYWGEGTQVTVSS	low polyreactivity
QVQLQESGGGLVQAGGSLRLSCAASGSIIEELDMAWYRQAPGKEREFVAAIGTGSTTYYADSVKGRFTSSRDNAKNTVYLQMNSLKPEDTAVYYCAVTYSVYLPFRYWGQGTQVTVSS	high polyreactivity
QVQLQESGGGLVQAGGSLRLSCAASGSISGPHVMGWSRQAPGKEREFVAAINVGANTYYADNVKGRFTISRDNAKNTVYLRMNSLKPEDTAVYYCAAVYYGDIGHEYWGQGTQVTVSC	low polyreactivity
QVQLQESGGGLVQAGGSLRLSCAASGSISGPHVMGWYRQAPGKEREFVAAINVGANTYYADNVKGRFTISRDNAINTVYLQMNSLKTEDTAVYYCAAVYYGDIGHEYWGQGTQVTVSC	low polyreactivity
QVQLQESGGGLVQAGGSLRLSCAASGSISGPHVMGWYRQAPGKVREFVAAINVGANTYYADNVKGRFTISRDNAKNTVYLQMNSLKPEDTAVYYCAAAYYGDIGHEYWGQGTQVTVSS	low polyreactivity
QVQLQESGGGLVQAGGSLRLSCAASGSISHYIFMGWYRQAPGKQREFVAGIGYGGTTNYADSVKGRFTISRDNAKNTVYLQRNSLKPEDTGMYYCAAREATEFYLYYWGQGTQVTVSS	low polyreactivity
QVQLQESGGGLVQAGGSLRLSCAASGSISILQSMGWYRQAPGKERELVAGINWGATTYYADSVKGRLTTSRDYAKNTVYLQLNSLKPEDTGVYYCAFQTYFTYPLLYWGQGTQVNVSS	low polyreactivity
QVQLQESGGGLVQAGGSLRLSCAASGSISLGDNMGWYRQAPGKEREFVATISVGGITYYVDSVKGRFTISRDIAKNTVYLQMNSLKPEDTAVYYCAALDIYYFRYYYWGQGTQVTVSS	low polyreactivity
QVQLQESGGGLVQAGGSLRLSCAASGSISRLDYMGWYRQASGKERELVAAIDNGSTTYYADSVKGRLTISRDNAKYTVYLQMNSLKPADTAVYFCAAVRGRGGTHAYWGQGTQVTVSG	low polyreactivity
QVQLQESGGGLVQAGGSLRLSCAASGSISSRDAMGWYRQAPGKEREFVATIASGTTTYYADSVKGSFTISRDNAENTVYLQTYRLKPEDTAVYYCAAPTIQIYPFYYWGQGTQVNVSS	high polyreactivity
QVQLQESGGGLVQAGGSLRLSCAASGSNFDTPTMGWYRQAPGKERELVASIAYDDNTYYADSVKGRFTISRYNAKNTVYLQMNSLKPGETAVYYCAVTDRIYYYFVYWGQGTRVTVSS	high polyreactivity
QVQLQESGGGLVQAGGSLRLSCAASGTFSPLPAMGWYRQAPGKERECVAGNDTGAITNYADSVKGRFTISRDNAKNTVYLQMNSLKPDDTAVYYCAVFPAAYVYYVRYYTYWGQGTQVTVCS	low polyreactivity
QVQLQESGGGLVQAGGSLRLSCAASGTIFRFRYMGWHRQAPGKERELVAGINGGTTTYYADSVIGRFTISRDNAKNTVYLQMNSLKPEDTAVYYCAADVNYYQHRLYYWGQGTQVTVSS	low polyreactivity

Sequence	polyreactivity (PSR sort gate)
QVQLQESGGGLVQAGGSLRLSCAASGTIFRISDMGSYRQAPGKDLEFVAAITYGANTYYADSGKGRFTISRDNAKNTVYLQMNSLKPEDTAVYYCAVPPVKETILDYWGQGTQVTVSS	low polyreactivity
QVQLQESGGGLVQAGGSLRLSCAASGTIFTARFMGWYRQAPGKERELVATITDGGNTNHADSVKGRFTISRDNAKNTVYLQMNSLKPEDAAVDYCAAGEVDNDTLLYWGQGSQVTVSS	low polyreactivity
QVQLQESGGGLVQAGGSLRLSCAASGTIFWLWAMGWYCQAPGKERELVASISSGGTTYHADSVKGRFTISRDNAKNTVYLQMNSLKPEDTAVYYSAAFYVATAKLGFWGQGSQVTVSS	low polyreactivity
QVQLQESGGGLVQAGGSLRLSCAASGTISDSGLMGWYRQAPGKERELVAGISSGGITNYADSVKGRFTISRDNAKNTVYLQMKSLKPEDTAVYWGQGTQVTVSS	low polyreactivity
QVQLQESGGGLVQAGGSLRLSCAASGTISDSGLMGWYRQAPGKERELVAGISSGGITNYADSVKGRFTISRDNAKNTVYMQMNSLKPEDTAVYWGQGSQVTVSS	low polyreactivity
QVQLQESGGGLVQAGGSLRLSCAASGTISPLPAMGWYRQAPGKEREFVAGIDTGAITNYADSVKGRFTISRDNAKNTVYLQMISLKPEDTAVYYCAVFPAAYYYYERFYTYWGQGTQVTVSS	low polyreactivity
QVQLQESGGGLVQAGGSLRLSCAASGTISPLPAMGWYRQAPGKEREFVAGIDTGAITNYADSVKGRFTISRDNAKNTVYLQMNSLKPEDTPVYYCAATFYYSGHDDYWGQGTQVPVSS	low polyreactivity
QVQLQESGGGLVQAGGSLRLSCAASGTISQEDWMGLYRQAPGKEREFVAAIGLGSNTNYADSLKGRFTISRDNAKNTVYLQMNSLKPEDTAVYYCAVSVWQYSDHVYRGQGTQVTVSS	low polyreactivity
QVQLQESGGGLVQAGGSLRLSCAASGTITVLYKMGWFRQAPGKEREFVASINYGTSTYYADSVKGRFTVSRDSAKNTVYLQMNSLKPEDTAVYFCSAAFRWQDVYRYWGQGTQVTVSS	low polyreactivity
QVQLQESGGGLVQAGGSLRLSCAASGYIFPTAIMGWYLQATGKERKLVAAINPGSNTYYADSVKGRFTFSRDNAKNTVYLQMYSLKPEDAAVYYCAVSIWLEGTLDYWGQGTQVTVSS	low polyreactivity
QVQLQESGGGLVQAGGSLRLSCAASGYIPLAQTIGSYRQAPGKEREFVASIALGSSTYYTDSVKGSFTISRDNAKTTVYLQMNSLKPEDTAVYYCAARVGACYAHDYWGQGTQVTVSS	low polyreactivity
QVQLQESGGGLVQAGGSLRLSCAASGYISDGYVMGWYRQAPGKEREFVATISGGTTAYYADSVKGRFTISRDNAKNTVYLQMNSLKPEDTAVYYCAAETSYYWDYDYWGHGTQVTVSS	high polyreactivity
QVQLQESGGGLVQAGGSLRLSCAASGYISHADEMGWYRQAPGKVHELVASISNGGSTNYADSVKGRFTISRDNAKNTVYLQMNSLKSEDTAVYYCAAWTGQVDIHYYWGQGTQVTVSS	low polyreactivity
QVQLQESGGGLVQAGGSLRLSCAASGYISLAQTIGWYRQAPGTEREFVASIALGSSTYYTDSVKGSFTISRDNAKTTVYLQMNSLKPEDTAVYYCAARVGASYAHDYWGQGTQVTVSS	low polyreactivity
QVQLQESGGGLVQAGGSLRLSCAASGYISLAQTKGWYRQEPGKEREFVASIALGSSTYYTDSVKGSFTISRDNAKTTVYLQMNSVKPEDTAVYYCAARVGASYAHDFWGQGTQVTVSS	low polyreactivity
QVQLQESGGGLVQAGGSLRLSCAASGYISQSSVMGWYRQAPGKEREFVASISYGATTYYADSVKGRFTISRDNAKNTVYLQTNSPKPEDTAVYYCAVWVKRGFSHRYWGQGTQVTVSS	high polyreactivity
QVQLQESGGGLVQAGGSLRLSCAASGYISSWYPKGWYRQAPGQEREFVATIAPGATTYYADSVKGRFTMSRDYAKNTVYLQMNSLKPEDTAVYYCAAGPENNDFYSYWGQGTQVTVSS	low polyreactivity
QVQLQESGGGLVQAGGSLRLSCAASGYNSFSGYMGRYRQAPGKEREFVDSITPGRSTYYADSVKGRFTISRDNAEITVYLQMNSLKPEDTGVYYCAADDSRTEQHDYWGQGTQVTVSS	high polyreactivity
QVQLQESGGGLVQAGGSLRLSCAASGYNSHADEMGWYRQAPGKEHELVASISNGGSTNYADSVKGRFTISRDNANNTVYLQMNSLKSEDTAVYYCADWTGEVDIHYYWGQGTQVTVSS	low polyreactivity
QVQLQESGGGLVQAGGSLRLSCAATGSIYHLHIMCWYRKAPGKERESVAAISYGTSTYYADSVKGRFTICRDNAKNTVYLQMNSPKPDDTAVYYCAALFLVYKHHHYWGEGTQVTVSS	low polyreactivity
QVQLQESGGGLVQAGGSLRLSCAPSGTITVLYKMGWFRQAPGKEGEFVASINYGTSTYYADSVKGRFTVSRDRAKNTVYLQMNSLKPEDTAVYYCAAAYRWQDVYRYWGQGTQVTVSS	low polyreactivity
QVQLQESGGGLVQAGGSLRLSCASSGSIFKVVDKGLYRQAPAKEREFVATIGEGGNTYYADSVKGRFTISRDNAKNTVYLQMNSLKPEDTAVYFYAVVLGTSYRYTYWGQGTQVTVSS	low polyreactivity
